This assay has as its target viral nucleoprotein complex (HIV-1) (HIV-1 (pNL4-3)). Nature of the assay: co-sedimentation; concentrated vif-defective HIV-1 virions from transfected HeLa cells loaded on a 20%/60% sucrose step gradient overlaid with 100 ul of 1% Triton X-100 (results: 0.1% Triton X-100) or PBS; SW55Ti, 60 min, 35,000 rpm, 4°C; fractions S1-S3 immunoblotted for APOBEC, CA, NC, MA. (In western blotting, separated proteins are transferred to a membrane and probed.)

“APOBEC3G (from UniProt Q9HC16 1-384) (enzyme)”: the percent of virus-associated A3G copurifying with viral NPCs was over 70%.

Source of the values: article PMC2018723.
